Among the data in publication PMC4288057, “Garlic γ-glutamyl transpeptidases that catalyze deglutamylation of biosynthetic intermediate of alliin” (Frontiers in Plant Science, 2015) are Km values, retold here.

B1: AsGGT3 (Allium sativum) (protein)
chain: MLINSYPAYHCFPHTEEFHQNFMPAYITKWLAVTLLLLVFYKPILAGDEIRHRREVITSKNGAVASDDGRCSVIGTDVLKEGGNAIDAAVAASFCLGVVSAASSGIGGGAFMLIRMANGEAHAIDMRETAPLHASQNMYNGNAILKGSGILSVAVPGEIAGLHKAWKQHGKLPWKRLVMPAAKIAKAGFEISKYLYMQMNRTKSEILKDKGMQDIYASNGTLLNPGDICRNKELACTLREIAVHGPKVFYNGSVGIKLVKDIQKLGGILTLNDLKNYRVKVNKPISANVMGYEILGMPPPSSGGAGMILILNILAQYGIPSGVSGSLGLHRFIESLKHMMAIRMNLGDPEFVNVSQVLSEMLSPKFAEDLKKRIYDNMTFDPSYYGPKWNLVNDHGTSHLSIVDSERNAVSMTSTVNSYFGAGIVSPSTGIVLNNEMDDFSIPSNSSNNNMPPPAPANFIAPLKRPLSSMSPTVVLKDGKLVASLGASGGGMIIAAATHIFLKLFAEKLDPLASALSPRSYHQLIPNVVQYEDWMTVIGDHFLVAEKERAALEKKGHVLKPLAGGTICQFVIQGADDAKELGLGIANGDLMAISDPRKGGIPDGY
notes: full-length coding region (605 aa), no tag, pYES2 in Saccharomyces cerevisiae BJ2168, crude yeast protein extract
B2: AsGGT1 (Allium sativum) (protein)
chain: MNQMAPASSDQKLGTSLIVRENSTDRRFALHWILILAALTTLFALGLHLSSVQYRGSEELGEFRKGLKSTGGSDAVESEKGVVAADDGYCSEIGASVLRKGGHAVDAVVATAICEGVRHPMSSGIGGGAFMVVRSAKDGKALAFDARETAPLAASKDMYQNNPLAKSLGPLSMGIPGEIAGLHAAWLLYGKLPWKSLFEPSITLLKNGVKIEPYLALSINDNKDKIMSDPGLAEVFAPNGKLLQLNDTFYNFKLADSLEAIAEEGPQAFYNGSIGQKFIQDIRNLGGIVTMNDMRKYTVEITEPLYSDVLGYTLVGMPLPSSGTLGVSMVLNILGSYETLNAMKGFHGLHRLIEAVKHTLAIRMNLGDSKFVNCTKYVDDMLSPTYAEQVKERIFDNTTFDPSYYLNRWSQIRDHGTSHMSIVDSERNAVAFTSTVNMYFGGGVMSPSTGIVANNEMDDFSIPTDATEDGLPPAPSNFIEPNKRPLSSMSPLIILKDNQLAGVLGASGGMNIIPAVSQVFINHFVLGVDPLKAVQHPRFYHTLIPNLVQYENWTALDGELFEFSEAAKEFLAKRNHQLQMKSGAGAVCQFVVQNLTSSNSNKETDGIIRGMLTAVSDPRKDGSPACV
notes: full-length coding region (627 aa), no tag, pYES2 in Saccharomyces cerevisiae BJ2168, crude yeast protein extract
B3: AsGGT2 (Allium sativum) (protein)
chain: MEPAHDDLESSLLRYRPLHNDHTTVRRYPIIIIVATFVVFGLLFSIQFNLDNSERVYELKTKSGGEVVQSEVGVVAADDGYCSETGASILRKGGHAVDALVATAICEGIRHPMSSGIGGGAFIVVRSAKDGKAFAFDARETAPIASSRDMYQNNHSDKCLGPLSIGIPGEVAGLHAIWKMYGKLPWKSLFQPSIDLLRNGFKIVPYLDMSIREHADKILSDPGLREVFAPNGRLLRLNDTLYNYRLVNSLETIAREGPQALYSGSIGEKFIQDVRDLGGIITMDDMENYKVEVTEALSGNALGYTIIGMPPPSTGTVGISMVLNILGSYKTLDAVKGLIGIHRLIEAIKHTLGMRMNLGDPNFVNITEYVNDMLSPTYAEKVKERIFDNTTFDLSYYSNKWSQLSDHGTSHVSIVDSERNAVSFTSTINEYFGAGVMSPATGIIANNEMCDFATPTDETVDDIPPAPTNFIEPNKRPLSSMSPLIILKDDNLAGVIGASGGMNIIPAIAQVLINYFILGMDPLKAVQYPRFYHRFTPNVVLYENYTAVNGENFMFPEAAIKFLEERHHQLQMKAGVAAVCQFVVQNLTESGSSNANMKNGGHLRGMLTAVSDPRKDGSPACV
notes: full-length coding region (622 aa), no tag, pYES2 in Saccharomyces cerevisiae BJ2168, crude yeast protein extract

Substrate in this data set: C=CCSC[C@H](NC(=O)CC[C@H](N)C(=O)O)C(=O)O
As to the kind of experiment: HPLC of S-allyl-L-cysteine formed, crude yeast extract. It is filed as biochemical, Allium sativum. As to conditions: 10 mM glycylglycine as acceptor, 50 mM Tris-HCl pH 8.0 (standard assay), 37°C, 6 h.
B1: the Km (in general, the concentration of substrate that gives half-maximal velocity) was determined as 9400 µM.

Regarding B2, the Km came to 86 µM.

As for B3, the Km was 1100 µM.
